Laboratory results from US10500249B2, “Compositions and methods for preventing or treating diseases, conditions, or processes characterized by aberrant fibroblast proliferation and extracellular matrix deposition” (MOERAE MATRIX, INC., priority 2014, dated 2019).

Key:
Experiment in all cases: Kinase Profiling Assay
Type in all cases: biochemical
Details in all cases: 100 μM
[1] = molecular target: Aurora-B (h) (Homo sapiens, UniProt Q96GD4)
Summary of the method: (§1)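 Each kinase activity was measured in duplicate. Phosphorylation of a positively charged substrate with radiolabeled phosphate from ATP was captured on a negatively charged filter, counted by scintillation and expressed relative to a 100% activity control. MK2 inhibitory peptides were screened for specificity across 266 human kinases.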

[2] = molecular target: T1, DAPK1 (h) (Homo sapiens, UniProt P53355)
T1 construct: purchased Millipore
T1 sequence (P53355 whole entry): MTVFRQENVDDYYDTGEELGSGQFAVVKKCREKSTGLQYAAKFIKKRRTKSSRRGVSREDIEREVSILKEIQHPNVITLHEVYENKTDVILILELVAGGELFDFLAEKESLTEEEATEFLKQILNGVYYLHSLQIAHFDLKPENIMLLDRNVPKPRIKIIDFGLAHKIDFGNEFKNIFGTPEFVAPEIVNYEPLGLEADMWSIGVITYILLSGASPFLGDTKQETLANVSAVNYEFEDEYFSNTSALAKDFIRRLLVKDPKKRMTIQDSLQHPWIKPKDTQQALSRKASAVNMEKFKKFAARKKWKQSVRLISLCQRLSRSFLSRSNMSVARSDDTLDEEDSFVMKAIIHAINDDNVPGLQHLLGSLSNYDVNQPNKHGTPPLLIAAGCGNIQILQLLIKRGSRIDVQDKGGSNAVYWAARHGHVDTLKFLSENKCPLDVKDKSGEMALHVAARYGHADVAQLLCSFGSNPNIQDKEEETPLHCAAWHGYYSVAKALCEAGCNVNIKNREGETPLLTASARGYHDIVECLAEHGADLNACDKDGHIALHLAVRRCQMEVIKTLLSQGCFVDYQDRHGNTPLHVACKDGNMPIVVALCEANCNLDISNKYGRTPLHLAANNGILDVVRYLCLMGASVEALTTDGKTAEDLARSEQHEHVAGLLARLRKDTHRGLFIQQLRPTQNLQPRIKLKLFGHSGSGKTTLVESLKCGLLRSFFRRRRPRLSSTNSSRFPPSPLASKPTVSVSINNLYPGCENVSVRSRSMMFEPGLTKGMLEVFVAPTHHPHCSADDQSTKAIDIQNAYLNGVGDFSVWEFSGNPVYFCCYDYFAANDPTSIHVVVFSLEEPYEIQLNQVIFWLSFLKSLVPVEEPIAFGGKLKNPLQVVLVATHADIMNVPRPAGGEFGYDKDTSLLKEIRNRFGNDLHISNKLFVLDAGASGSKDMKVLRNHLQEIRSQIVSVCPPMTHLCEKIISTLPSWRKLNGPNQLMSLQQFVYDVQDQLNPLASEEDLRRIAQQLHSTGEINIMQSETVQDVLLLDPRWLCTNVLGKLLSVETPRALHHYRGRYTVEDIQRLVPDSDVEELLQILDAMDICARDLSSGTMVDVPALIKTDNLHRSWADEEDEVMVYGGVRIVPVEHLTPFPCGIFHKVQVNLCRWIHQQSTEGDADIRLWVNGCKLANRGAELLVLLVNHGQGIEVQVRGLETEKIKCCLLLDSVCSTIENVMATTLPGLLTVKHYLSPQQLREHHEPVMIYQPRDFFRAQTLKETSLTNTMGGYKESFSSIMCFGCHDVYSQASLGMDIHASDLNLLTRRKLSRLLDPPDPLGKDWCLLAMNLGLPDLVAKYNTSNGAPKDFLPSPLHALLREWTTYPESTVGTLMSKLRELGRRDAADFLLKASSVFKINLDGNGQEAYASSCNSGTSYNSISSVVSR
Summary of the method: as §1

[3] = molecular target: T2, EphA8 (h) (Homo sapiens, UniProt P29322)
T2 sequence (P29322 28-1005): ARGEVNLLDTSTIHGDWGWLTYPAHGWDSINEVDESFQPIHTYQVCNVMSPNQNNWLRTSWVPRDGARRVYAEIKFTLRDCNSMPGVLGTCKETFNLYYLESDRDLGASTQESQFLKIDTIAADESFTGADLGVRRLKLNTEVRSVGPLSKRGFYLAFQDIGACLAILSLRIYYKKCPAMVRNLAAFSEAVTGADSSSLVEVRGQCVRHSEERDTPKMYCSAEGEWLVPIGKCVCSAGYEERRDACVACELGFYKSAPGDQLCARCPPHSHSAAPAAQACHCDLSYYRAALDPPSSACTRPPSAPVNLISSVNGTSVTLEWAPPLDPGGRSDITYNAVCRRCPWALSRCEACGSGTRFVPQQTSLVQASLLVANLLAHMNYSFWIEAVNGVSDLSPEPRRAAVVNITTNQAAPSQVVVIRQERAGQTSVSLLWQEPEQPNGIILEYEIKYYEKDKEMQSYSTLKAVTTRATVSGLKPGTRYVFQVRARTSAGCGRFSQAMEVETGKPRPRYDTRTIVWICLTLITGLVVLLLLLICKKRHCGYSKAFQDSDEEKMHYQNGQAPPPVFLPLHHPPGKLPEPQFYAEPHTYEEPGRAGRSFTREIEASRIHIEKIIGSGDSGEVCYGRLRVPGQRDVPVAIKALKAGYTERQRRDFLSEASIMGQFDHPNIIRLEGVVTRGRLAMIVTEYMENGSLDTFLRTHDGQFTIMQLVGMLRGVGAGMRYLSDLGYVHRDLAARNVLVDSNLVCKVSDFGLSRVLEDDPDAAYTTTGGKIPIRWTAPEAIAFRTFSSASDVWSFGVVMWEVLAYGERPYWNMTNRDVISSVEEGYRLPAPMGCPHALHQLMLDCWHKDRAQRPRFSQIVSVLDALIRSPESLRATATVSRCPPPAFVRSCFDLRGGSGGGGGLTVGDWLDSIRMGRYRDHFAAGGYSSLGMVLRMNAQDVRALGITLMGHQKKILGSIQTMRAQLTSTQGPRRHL
Summary of the method: as §1

[4] = molecular target: T3, Hck (h) activated (Homo sapiens, UniProt P08631)
T3 construct: purchased Millipore
T3 sequence (P08631 whole entry): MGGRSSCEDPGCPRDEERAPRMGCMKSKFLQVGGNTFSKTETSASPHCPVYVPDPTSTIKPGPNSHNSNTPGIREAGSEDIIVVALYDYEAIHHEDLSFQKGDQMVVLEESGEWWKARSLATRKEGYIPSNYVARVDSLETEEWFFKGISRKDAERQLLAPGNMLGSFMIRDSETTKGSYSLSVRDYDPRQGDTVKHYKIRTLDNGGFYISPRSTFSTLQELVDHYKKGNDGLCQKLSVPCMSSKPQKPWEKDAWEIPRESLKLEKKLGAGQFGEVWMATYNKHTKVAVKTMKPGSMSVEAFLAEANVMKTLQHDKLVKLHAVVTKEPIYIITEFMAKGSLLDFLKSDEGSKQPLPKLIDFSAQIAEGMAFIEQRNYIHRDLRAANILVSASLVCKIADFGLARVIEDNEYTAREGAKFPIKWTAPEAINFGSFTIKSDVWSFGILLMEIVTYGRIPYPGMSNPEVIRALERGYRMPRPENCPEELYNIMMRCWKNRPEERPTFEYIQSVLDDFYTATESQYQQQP
Summary of the method: as §1

[5] = molecular target: T4, IRAK1 (h) (Homo sapiens, UniProt P51617)
T4 construct: purchased Millipore
T4 sequence (P51617 whole entry): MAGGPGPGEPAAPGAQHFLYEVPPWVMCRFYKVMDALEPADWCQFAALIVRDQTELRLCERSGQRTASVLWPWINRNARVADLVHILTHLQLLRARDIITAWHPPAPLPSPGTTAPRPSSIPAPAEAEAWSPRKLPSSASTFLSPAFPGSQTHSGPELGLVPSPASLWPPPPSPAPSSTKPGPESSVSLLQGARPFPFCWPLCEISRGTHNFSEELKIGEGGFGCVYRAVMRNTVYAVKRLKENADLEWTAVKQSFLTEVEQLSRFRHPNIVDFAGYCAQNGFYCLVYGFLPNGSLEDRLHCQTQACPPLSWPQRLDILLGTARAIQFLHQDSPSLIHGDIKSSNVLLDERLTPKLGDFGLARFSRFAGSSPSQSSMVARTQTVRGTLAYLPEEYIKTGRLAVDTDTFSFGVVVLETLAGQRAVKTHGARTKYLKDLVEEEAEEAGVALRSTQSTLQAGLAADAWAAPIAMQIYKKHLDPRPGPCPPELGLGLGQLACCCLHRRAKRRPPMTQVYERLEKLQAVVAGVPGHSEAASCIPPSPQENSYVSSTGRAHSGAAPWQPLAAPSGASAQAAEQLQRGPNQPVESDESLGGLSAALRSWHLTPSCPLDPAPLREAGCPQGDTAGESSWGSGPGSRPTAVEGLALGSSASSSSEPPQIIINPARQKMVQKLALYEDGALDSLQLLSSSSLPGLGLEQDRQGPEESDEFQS
Summary of the method: as §1

[6] = molecular target: T5, PKCγ (h) (Homo sapiens, UniProt P05129)
T5 construct: purchased Millipore
Summary of the method: as §1

[7] = molecular target: T6, PKCτ (h) (Homo sapiens, UniProt P41743)
T6 sequence (P41743 1-596): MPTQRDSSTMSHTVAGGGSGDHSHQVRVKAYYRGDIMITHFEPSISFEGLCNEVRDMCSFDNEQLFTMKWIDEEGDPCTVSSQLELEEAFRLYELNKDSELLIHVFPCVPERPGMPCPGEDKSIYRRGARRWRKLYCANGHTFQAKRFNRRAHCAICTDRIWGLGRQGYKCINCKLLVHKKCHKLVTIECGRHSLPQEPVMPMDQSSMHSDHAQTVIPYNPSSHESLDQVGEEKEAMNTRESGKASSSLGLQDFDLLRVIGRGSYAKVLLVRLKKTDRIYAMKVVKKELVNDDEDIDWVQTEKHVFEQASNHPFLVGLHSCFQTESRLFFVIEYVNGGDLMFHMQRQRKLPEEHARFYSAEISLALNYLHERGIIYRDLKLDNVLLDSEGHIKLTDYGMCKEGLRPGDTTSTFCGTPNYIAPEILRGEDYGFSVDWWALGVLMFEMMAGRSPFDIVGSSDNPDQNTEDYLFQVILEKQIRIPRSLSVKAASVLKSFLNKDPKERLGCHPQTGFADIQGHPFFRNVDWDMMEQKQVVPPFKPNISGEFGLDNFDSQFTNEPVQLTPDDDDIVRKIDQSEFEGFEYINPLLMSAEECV
Summary of the method: as §1

[8] = molecular target: T7, PKD2 (h) (Homo sapiens, UniProt Q9BZL6)
T7 sequence (Q9BZL6 1-878): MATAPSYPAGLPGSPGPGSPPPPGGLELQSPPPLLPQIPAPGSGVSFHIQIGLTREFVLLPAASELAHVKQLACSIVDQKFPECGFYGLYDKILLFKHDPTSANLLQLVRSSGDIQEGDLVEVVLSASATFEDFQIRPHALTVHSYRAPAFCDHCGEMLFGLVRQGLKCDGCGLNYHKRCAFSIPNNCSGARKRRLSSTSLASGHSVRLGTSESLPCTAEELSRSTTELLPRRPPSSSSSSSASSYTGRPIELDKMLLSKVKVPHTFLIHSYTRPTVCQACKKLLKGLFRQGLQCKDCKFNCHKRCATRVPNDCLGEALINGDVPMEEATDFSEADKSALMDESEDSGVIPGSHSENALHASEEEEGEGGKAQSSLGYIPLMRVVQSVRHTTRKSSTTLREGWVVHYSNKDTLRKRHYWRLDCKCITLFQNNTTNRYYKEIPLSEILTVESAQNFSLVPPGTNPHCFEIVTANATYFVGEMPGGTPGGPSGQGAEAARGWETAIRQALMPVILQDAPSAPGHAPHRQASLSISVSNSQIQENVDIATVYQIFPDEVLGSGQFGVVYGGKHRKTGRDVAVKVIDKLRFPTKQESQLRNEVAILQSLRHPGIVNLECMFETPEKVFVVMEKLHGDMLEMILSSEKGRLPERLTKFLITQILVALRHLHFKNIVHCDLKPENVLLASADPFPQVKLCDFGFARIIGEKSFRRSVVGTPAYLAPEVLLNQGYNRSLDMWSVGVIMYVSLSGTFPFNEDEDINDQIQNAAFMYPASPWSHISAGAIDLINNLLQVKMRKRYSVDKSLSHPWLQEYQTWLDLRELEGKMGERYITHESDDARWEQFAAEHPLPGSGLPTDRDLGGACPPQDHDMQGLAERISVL
Summary of the method: as §1

Chain of Aurora-B (h) (Q96GD4 whole entry): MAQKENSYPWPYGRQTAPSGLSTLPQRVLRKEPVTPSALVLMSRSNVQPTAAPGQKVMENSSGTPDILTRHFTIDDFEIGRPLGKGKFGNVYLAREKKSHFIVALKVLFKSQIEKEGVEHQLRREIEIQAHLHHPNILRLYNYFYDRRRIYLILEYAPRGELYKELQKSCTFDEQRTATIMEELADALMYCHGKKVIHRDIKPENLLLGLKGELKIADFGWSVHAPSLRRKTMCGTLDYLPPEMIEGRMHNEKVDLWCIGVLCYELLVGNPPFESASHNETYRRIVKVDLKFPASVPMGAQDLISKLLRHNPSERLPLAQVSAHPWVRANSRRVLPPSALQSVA

| Sequence | % activity [1] [%] | % activity [2] [%] | % activity [3] [%] | % activity [4] [%] | % activity [5] [%] | % activity [6] [%] | % activity [7] [%] | % activity [8] [%] |
| --- | --- | --- | --- | --- | --- | --- | --- | --- |
| FAKLAARLYRKALARQLGVAA [MMI-0300] | 128 | 46 | 93 | 82 | 95 | 89 | 68 | 33 |
| HRRIKAWLKKIKALARQLGVAA (Mammalian) [MMI-0500] | 5 | 0 | 337 | 67 | 5 | 6 | 7 | 10 |
| KAFAKLAARLYRKALARQLGVAA [MMI-0400] | 150 | 36 | 146 | 81 | 93 | 79 | 46 | 25 |
| YARAAARQARAKALNRQLGVA (Mammalian) [MMI-0200] | 166 |  | 133 | 100 | 101 | 101 | 97 | 78 |
